Like-named read-outs stand apart in the source and are kept apart here.

This note sets out measurements from paper PMC8892499.

Assay [1] addresses OmpX_(1,149), double-cysteine variant of outer membrane protein X, labeled with FRET donor and acceptor dyes, unfolded (uOmpX) (UniProt P0A917). As to the kind of experiment: single-molecule FRET (smFRET) titration, intramolecular FRET of labeled uOmpX; 20 pM labeled uOmpX diluted from 6 M GdmCl into buffer with chaperone (Skp3 from 0.5 nM to 2.5 µM; SurA 46 nM to 25 µM); 20 mM Tris-HCl pH 8.0, 150 mM NaCl, 6 mM GdmCl, 87.5 nM LDAO; 37 °C; bound fraction from three Gaussian distributions; Hill coefficient set to 1 (Skp3) and 1.5 (SurA).

For assay [2] the target is unchanged. As to the kind of experiment: single-molecule FRET (smFRET) titration, intramolecular FRET of labeled uOmpX; global analysis of FRET efficiency distributions at different chaperone concentrations and temperatures (25, 31, 37 °C); ΔH and ΔS from the temperature dependence of Ka; errors by bootstrapping.
The target is the same in assay [3]. As to the kind of experiment: single-molecule FRET (smFRET) titration, intramolecular FRET of labeled uOmpX; as the titration at 37 °C, but at 25 °C: 20 pM labeled uOmpX in buffer with Skp3 or SurA; 20 mM Tris-HCl pH 8.0, 150 mM NaCl; Hill coefficient set to 1 (Skp3) and 1.5 (SurA).
Assay [4] has the same target. As to the kind of experiment: single-molecule FRET (smFRET) titration, intramolecular FRET of labeled uOmpX; global analysis of FRET efficiency distributions at different chaperone concentrations and temperatures (25, 31, 37 °C); ΔH and ΔS from the temperature dependence of Ka; errors by bootstrapping. The source holds these as a separate data set.
Assay [5] has the same target. As to the kind of experiment: single-molecule FRET (smFRET) titration, intramolecular FRET of labeled uOmpX; 20 pM labeled uOmpX diluted from 6 M GdmCl into buffer with chaperone (Skp3 from 0.5 nM to 2.5 µM; SurA 46 nM to 25 µM); 20 mM Tris-HCl pH 8.0, 150 mM NaCl, 6 mM GdmCl, 87.5 nM LDAO; 37 °C; bound fraction from three Gaussian distributions; Hill coefficient set to 1 (Skp3) and 1.5 (SurA). This is another data set of the same source.

For orientation: Kd means the free concentration of one partner at which half of the binding sites on the other are occupied at equilibrium, for simple one-to-one binding. Consider “survival factor A (SurA) (from UniProt P0ABZ6 21-428) (natural protein)”, for which, in assay [1], the Kd worked out at 8200 nM, the c1/2 (inverse of Ka) is 407 nM and the percent of uOmpX molecules bound at ~6 µM SurA worked out at 87%. In addition, the dH in assay [2] was -31.5 kcal/mol. In assay [3], the Kd was 1000 nM and the c1/2 (inverse of Ka) worked out at 103 nM.

B1: 17-kilodalton protein (Skp), trimer (Skp3) (natural protein)
chain: ADKIAIVNMGSLFQQVAQKTGVSNTLENEFKGRASELQRMETDLQAKMKKLQSMKAGSDRTKLEKDVMAQRQTFAQKAQAFEQDRARRSNEERGKLVTRIQTAVKSVANSQDIDLVVDANAVAYNSSDVKDITADVLKQVK
Consider B1, for which, in assay [4], the dH was -71.2 kcal/mol. In assay [5], the Kd was found to be 359 nM, the c1/2 (inverse of Ka) is 359 nM and the percent of uOmpX molecules bound at 2.5 µM Skp3 worked out at 80%. In assay [3], this molecule displayed a Kd of 3.6 nM and a c1/2 (inverse of Ka) of 3.55 nM.
